Source: patent US6423315

Molecular target: I-A^q molecule of MHC (mouse (DBA/1))
Assay: cell-based or functional assay

PTGPLGPKGQTGZLGIAGFKGZQGPK [CII 245-270]
160 U/ml: IL-2 U/ml, T-cell hybridoma 2qCII92.33, molar ratio 0:1 (no competitor; baseline in the row of CII 245-270 [s260, 261, 263]) | IL-2 U/ml, T-cell hybridoma 2qCII92.33, molar ratio 0:1 (no competitor; baseline in the row of CII 245-270 [s266, 267, 269]) | IL-2 U/ml, T-cell hybridoma qCII98.10, molar ratio 0:1 (no competitor; baseline in the row of CII 245-270 [s260, 261, 263]) | IL-2 U/ml, T-cell hybridoma qCII98.10, molar ratio 0:1 (no competitor; baseline in the row of CII 245-270 [s266, 267, 269])
640 U/ml: IL-2 U/ml, T-cell hybridoma qCII85.33, molar ratio 0:1 (no competitor; baseline in the row of CII 245-270 [s260, 261, 263]) | IL-2 U/ml, T-cell hybridoma qCII85.33, molar ratio 0:1 (no competitor; baseline in the row of CII 245-270 [s266, 267, 269])
